target: actin of the acto-HMM complexes in Example II; assay: stopped-flow; effects of ADP on ATP-mediated dissociation of acto-HMM

| Substance | maximum rate constant for dissociation of acto-HMM (ATP-mediated, with ADP) [s⁻¹] |
| --- | --- |
| HMM from pig β cardiac myosin heavy chain (from UniProt P79293 1-1282) (enzyme) | 35 |
| HMM from rat β cardiac myosin heavy chain (hypothyroid rat) (from UniProt P02564 1-1282) (enzyme) | 140 |
| rat α cardiac myosin HMM (chymotryptic heavy meromyosin of native hyperthyroid rat ventricular α-myosin) (from UniProt P02563 1-1285) (enzyme) | 600 |

From US7276644
